The text below walks through data of IntAct's records for PubMed 19114660.

B1: Occludin (Homo sapiens), Q16625-1 (parent)
chain: MSSRPLESPPPYRPDEFKPNHYAPSNDIYGGEMHVRPMLSQPAYSFYPEDEILHFYKWTSPPGVIRILSMLIIVMCIAIFACVASTLAWDRGYGTSLLGGSVGYPYGGSGFGSYGSGYGYGYGYGYGYGGYTDPRAAKGFMLAMAAFCFIAALVIFVTSVIRSEMSRTRRYYLSVIIVSAILGIMVFIATIVYIMGVNPTAQSSGSLYGSQIYALCNQFYTPAATGLYVDQYLYHYCVVDPQEAIAIVLGFMIIVAFALIIFFAVKTRRKMDRYDKSNILWDKEHIYDEQPPNVEEWVKNVSAGTQDVPSPPSDYVERVDSPMAYSSNGKVNDKRFYPESSYKSTPVPEVVQELPLTSPVDDFRQPRYSSGGNFETPSKRAPAKGRAGRSKRTEQDHYETDYTTGGESCDELEEDWIREYPPITSDQQRQLYKRNFDTGLQEYKSLQSELDEINKELSRLDKELDDYREESEEYMAAADEYNRLKQVKGSADYKSKKNHCKQLKSKLSHIKKMVGDYDRQKT

The variants in the assay derive from B1. The conditions noted are these: with kpcl_human kpcl_human.
As for T403A, the “effect of a mutation on the interaction” value was “decreasing interaction”. With T404A, the “effect of a mutation on the interaction” value was “decreasing interaction”. T438A: the “effect of a mutation on the interaction” value is given as “decreasing interaction”.
